One block for each binder: values may come before it.
What was measured:
[1] = molecular target: T1, ヒトTFPI (human tissue factor pathway inhibitor; American Diagnostica) (human, UniProt P10646 29-304, limits assumed); assay: ELISA, Fab in bacterial lysate on coated human TFPI
T1 construct: Coated on plates (ELISA) or amine-coupled to a CM5 chip (Biacore); also called h-TFPI; hTFPI
T1 sequence (looked up): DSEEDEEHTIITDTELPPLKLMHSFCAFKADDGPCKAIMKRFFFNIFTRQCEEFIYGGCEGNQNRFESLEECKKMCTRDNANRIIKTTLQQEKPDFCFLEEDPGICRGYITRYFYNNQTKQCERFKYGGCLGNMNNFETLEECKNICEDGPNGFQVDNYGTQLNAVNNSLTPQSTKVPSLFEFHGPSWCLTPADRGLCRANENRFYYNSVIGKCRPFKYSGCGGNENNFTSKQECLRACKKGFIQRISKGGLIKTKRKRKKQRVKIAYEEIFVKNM

[2] = molecular target: T2, マウスTFPI (mouse TFPI; R&D System) (mouse, UniProt O54819 29-289, limits assumed); assay: ELISA on coated mouse TFPI
T2 construct: also called m-TFPI; mTFPI
T2 sequence (looked up): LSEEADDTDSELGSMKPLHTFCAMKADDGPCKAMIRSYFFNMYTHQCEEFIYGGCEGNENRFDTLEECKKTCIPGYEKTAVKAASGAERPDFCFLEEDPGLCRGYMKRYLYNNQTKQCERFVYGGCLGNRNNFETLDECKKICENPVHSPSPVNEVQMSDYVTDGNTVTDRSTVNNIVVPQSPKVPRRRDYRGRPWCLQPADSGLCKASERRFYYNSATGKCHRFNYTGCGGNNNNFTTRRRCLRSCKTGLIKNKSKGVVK

[3] = molecular target: T1, ヒトTFPI (human tissue factor pathway …); assay: ELISA on coated human TFPI

B1: TP-3G3 (Fab, V domains shown)
VH: QVQLVESGGGLVQPGGSLRLSCAASGFTFSSYSMSWVRQAPGKGLEWVSSISSSSSNTYYGDSVKGRFTISRDNSKNTLYLQMNSLRAEDTAVYYCARMHYKGMDIWGQGTLVTVSS
VL: DIQMTQSPSSLSASVGDRVTITCRASQNIHSHLNWYQQKPGKAPKLLIYDASSLQSGVPSRFSGSGSGTDFTLTISSLQPEDFAVYYCQQYYDYPLTFGQGTKVEIKR
notes: HuCAL Gold human Fab from E. coli TG1
binding result [1]: binds

B4: TP-2G6 (Fab, V domains shown)
VH: QVQLQQSGPGLVKPSQTLSLTCAISGDSVSSSSAAWSWIRQSPGRGLEWLGIIYYRSKWYNDYAVSVKSRITINPDTSKNQFSLQLNSVTPEDTAVYYCARHSMVGFDVWGQGTLVTVSS
VL: DIVLTQSPATLSLSPGERATLSCRASQYVTSSYLAWYQQKPGQAPRLLIYGSSRATGVPARFSGSGSGTDFTLTISSLEPEDFATYYCQQYSSSPITFGQGTKVEIKR
notes: HuCAL Gold human Fab from E. coli TG1; also called 2G6-Fab
EC50 [2]: 5.18 nM
EC50 [3]: 0.48 nM

B6: TP-2B3 (Fab, V domains shown)
VH: QVQLQQSGPGLVKPSQTLSLTCAISGDSVSSNSAAWGWIRQSPGRGLEWLGMIYYRSKWYNSYAVSVKSRITINPDTSKNQFSLQLNSVTPEDTAVYYCARTMSKYGGPGMDVWGQGTLVTVSS
VL: DIVLTQSPATLSLSPGERATLSCRASQNIGSNYLAWYQQKPGQAPRLLIYGASTRATGVPARFNGSGSGTDFTLTISSLEPEDFAVYYCQQLNSIPVTFGQGTKVEIKR
notes: as for B1
binding result [1]: binds

B9: TP-2B1 (Fab, V domains shown)
VH: QVQLVESGGGLVQPGGSLRLSCAASGFTFSSYSMSWVRQASGKGLEWVSSIKGSGSNTYYADSVKGRFTISRDNSKNTLYLQMNSLRAEDTAVYYCARNGGLIDVWGQGTLVTVSS
VL: DIELTQPPSVSVAPGQTARISCSGDNLGNKYAHWYQQKPGQAPVLVIYYDNKRPSGIPERFSGSNSGNTATLTISGTQAEDEADYYCQSWTPGSNTMVFGGGTRLTVLG
notes: as for B1
binding result [1]: binds

B10: TP-4A7 (Fab, V domains shown)
VH: QVQLVESGGGLVQPGGSLRLSCAASGFTFRNYAMNWVRQAPGKGLEWVSVISGSSSYTYYADSVKGRFTISRDNSKNTLYLQMNSLRAEDTAVYYCARADLPYMVFDYWGQGTLVTVSS
VL: DIELTQPPSVSVAPGQTARISCSGDALGSKFAHWYQQKPGQAPVLVIYDDSERPSGIPERFSGSNSGNTATLTISGTQAEDEADYYCQAYDSGLLYVFGGGTKLTVLG
notes: as for B1
binding result [1]: binds

B12: TP-4B7 (Fab, V domains shown)
VH: QVQLQQSGPGLVKPSQTLSLTCAISGDSVSSNSAAWSWIRQSPGRGLEWLGIIYKRSKWYNDYAVSVKSRITINPDTSKNQFSLQLNSVTPEDTAVYYCARWHSDKHWGFDYWGQGTLVTVSS
VL: DIVMTQSPLSLPVTPGEPASISCRSSQSLVFSDGNTYLNWYLQKPGQSPQLLIYKGSNRASGVPDRFSGSGSGTDFTLKISRVEAEDVGVYYCQQYDSYPLTFGQGTKVEIKR
notes: as for B1
binding result [1]: binds

Now from value to binder:

binding result [1]: binds
B2: TP-2B4 (Fab, V domains shown)
VH: QVQLVESGGGLVQPGGSLRLSCAASGFTFSNYSMTWVRQAPGKGLEWVSGISYNGSNTYYADSVKGRFTISRDNSKNTLYLQMNSLRAEDTAVYYCARIYYMNLLAGWGQGTLVTVSS
VL: DIELTQPPSVSVAPGQTARISCSGDALGTYYAYWYQQKPGQAPVLVIYGDMNRPSGIPERFSGSNSGNTATLTISGTQAEDEADYYCQSYDAGVKPAVFGGGTKLTVLG
notes: as for B1

binding result [1]: binds
B3: TP-3H2 (Fab, V domains shown)
VH: QVQLVESGGGLVQPGGSLRLSCAASGFTFNSYYMSWVRQAPGKGLEWVSNISSSGSNTNYADSVKGRFTISRDNSKNTLYLQMNSLRAEDTAVYYCARVHYGFDFWGQGTLVTVSS
VL: DIELTQPPSVSVAPGQTARISCSGDKLGKYYAYWYQQKPGQAPVLVIYGDSKRPSGIPERFSGSNSGNTATLTISGTQAEDEADYYCSSAAFGSTVFGGGTKLTVLG
notes: as for B1

EC50 [2]: 0.51 nM
fold improvement of EC50 against 2G6-Fab [2]: 10 fold
EC50 [3]: 0.22 nM
fold improvement of EC50 against 2G6-Fab [3]: 2 fold
B5: 2G6-IgG (antibody, V domains shown)
VH: B4 VH
VL: B4 VL
notes: also called IgG-2G6; TP-2G6 after conversion to IgG

binding result [1]: binds
B7: TP-2B8 (Fab, V domains shown)
VH: QVQLVQSGAEVKKPGASVKVSCKASGYTFTGNSMHWVRQAPGQGLEWMGTIFPYDGTTKYAQKFQGRVTMTRDTSISTAYMELSSLRSEDTAVYYCARGVHSYFDYWGQGTLVTVSS
VL: DIELTQPPSVSVAPGQTARISCSGDNLRGYYASWYQQKPGQAPVLVIYEDNNRPSGIPERFSGSNSGNTATLTISGTQAEDEADYYCQSWDSPYVHVFGGGTKLTVLG
notes: as for B1

binding result [1]: binds
B8: TP-2A8 (Fab, V domains shown)
VH: QVQLVESGGGLVQPGGSLRLSCAASGFTFRSYGMSWVRQAPGKGLEWVSSIRGSSSSTYYADSVKGRFTISRDNSKNTLYLQMNSLRAEDTAVYYCARKYRYWFDYWGQGTLVTVSS
VL: DIELTQPPSVSVAPGQTARISCSGDNLRNYYAHWYQQKPGQAPVVVIYYDNNRPSGIPERFSGSNSGNTATLTISGTQAEDEADYYCQSWDDGVPVFGGGTKLTVLG
notes: HuCAL Gold human Fab from E. coli TG1; also called Fab-2A8; TP-2A8-Fab

binding result [1]: binds
B11: TP-2A10 (Fab, V domains shown)
VH: QVQLVESGGGLVQPGGSLRLSCAASGFTFTSYSMNWVRQAPGKGLEWVSAISYTGSNTHYADSVKGRFTISRDNSKNTLYLQMNSLRAEDTAVYYCARAFLGYKESYFDIWGQGTLVTVSS
VL: DIELTQPPSVSVAPGQTARISCSGDKLGKKYVHWYQQKPGQAPVLVIYGDDKRPSGIPERFSGSNSGNTATLTISGTQAEDEADYYCQAWGSISRFVFGGGTKLTVLG
notes: as for B1

binding result [1]: binds
B13: TP-3G1 (Fab, V domains shown)
VH: QVQLQQSGPGLVKPSQTLSLTCAISGDSVSSNSGGWGWIRQSPGRGLEWLGLIYYRSKWYNAYAVSVKSRITINPDTSKNQFSLQLNSVTPEDTAVYYCARYLGSNFYVYSDVWGQGTLVTVSS
VL: DIQMTQSPSSLSASVGDRVTITCRASQGISSYLHWYQQKPGKAPKLLIYGASTLQSGVPSRFSGSGSGTDFTLTISSLQPEDFATYYCQQQNGYPFTFGQGTKVEIKR
notes: as for B1

Source: patent publication JP2017222678A (dated 2017)
